We go through 1 molecule from patent US20260166140A1, “Combinations Involving Epidermal Growth Factor Receptor Tyrosine Kinase Inhibitors For the Treatment of Cancer” (AstraZeneca AB, priority 2022, published 2026).

Assay [1] relates to HCC827 cells. Description: Internalization of AF647-labeled antibodies, live cell confocal fluorescence microscopy. Format: cell-based. Here is the method:
Internalization kinetics of AlexaFluor647 (AF647) primary-labeled DuetMabs: RAA22/B09 and QD6/B09 antibodies was assessed in vitro using the EGFR and c-MET expressing cell line, H1975. Each antibody was pre-bound to cells and antibody translocation from cell surface to cytoplasm was then monitored using live cell confocal fluorescence microscopy. Both antibodies localized primarily on the cell surface before (T=0) subjecting to internalization conditions and were translocated to the cytoplasm area after 1 hour (data not shown). Kinetic images were taken every 5 min over the time course of internalization and were processed using a quantitative algorithm to determine internalization kinetic constants and half-times.
Since binding of both EGFR and c-MET arms to target receptor promoted RAA22/B09 receptor internalization in H1975 cells, we examined if the increased number of EGFR and c-MET receptors would affect internalization properties. The respective receptor levels determined by Western Blot were ˜33,000 for EGFR and ˜50,000 for c-MET in H1975 cells and ˜790,000 for EGFR and ˜523,000 for c-MET in HCC827 cells.

For assay [2], the target named is EGFR and c-MET co-expressed on cells (HCC827, H1975). Nature of the assay: live cell confocal fluorescence microscopy, AF647-labelled antibody pre-bound to cells.
The target is the same in assay [3]. Description: live cell confocal fluorescence microscopy, AF647-labelled antibody pre-bound to H1975 cells.
In assay [4] the target is Ron (CD136) (UniProt Q04912 25-957, limits assumed). Description: ELISA: antigen coated at 1 ug/mL, antibody dilution series, goat anti-human Fab-HRP, A450; panel Human Ron (CD136).
Assay [5] has as its target EGFR and c-MET co-expressed on cells (HCC827, H1975). Description: live cell confocal fluorescence microscopy, AF647-labelled antibody pre-bound to HCC827 cells.

B1: RAA22/B09-57 DuetMab (bispecific antibody, human IgG1, kappa, lambda)
heavy 1: QVQLVQSGAEVKKPGSSVKVSCKASGGTFSDNDFSWVRQAPGQGLEWMGAIVAVFRTETYAQKFQDRVKITADISTRTTYMELSSLRSEDTAVYYCARRLMSAISGPGAPLLMWGQGTLVTVSSASTKGPSVFPLAPSSKSTSGGTAALGCLVKDYFPEPVTVSWNSGALTSGVHTFPAVLQSSGLYSLSSVVTVPSSSLGTQTYICNVNHKPSNTKVDKRVEPKSCDKTHTCPPCPAPELLGGPSCVFLFPPKPKDTLMISRTPEVTCVVVDVSHEDPEVKFNWYVDGVEVHNAKTKPREEQYNSTYRVVSVLTVLHQDWLNGKEYKCKVSNKALPAPIEKTISKAKGQPREPQVCTLPPSREEMTKNQVSLSCAVKGFYPSDIAVEWESNGQPENNYKTTPPVLDSDGSFFLVSKLTVDKSRWQQGNVFSCSVMHEALHNHYTQKSLSLSPGK
heavy 2: QVQLVQSGAEVKKPGASVKVSCKASGYTFTDYYIHWVRQATGQGLEWMGWMNPNSGNTGYAQKFQGRVTMTRDTSISTAYMELSSLRSEDTAVYYCARGQGYTHSWGQGTMVTVSSASTKGPSVCPLAPSSKSTSGGTAALGCLVKDYFPEPVTVSWNSGALTSGVHTFPAVLQSSGLYSLSSVVTVPSSSLGTQTYICNVNHKPSNTKVDKRVEPKSVDKTHTCPPCPAPELLGGPSCVFLFPPKPKDTLMISRTPEVTCVVVDVSHEDPEVKFNWYVDGVEVHNAKTKPREEQYNSTYRVVSVLTVLHQDWLNGKEYKCKVSNKALPAPIEKTISKAKGQPREPQVYTLPPCREEMTKNQVSLWCLVKGFYPSDIAVEWESNGQPENNYKTTPPVLDSDGSFFLYSKLTVDKSRWQQGNVFSCSVMHEALHNHYTQKSLSLSPG
light 1: QSALTQPRSVSGSPGQSVTISCTGTSSDVGGYNYVSWYQQHPGKAPKLMIYDVSKRPSGVPDRFSGSKSGNTASLTISGLQAEDEADYYCSSYTSSDTLEIFGGGTKLTVLGQPKAAPSVTLFPPSSEELQANKATLVCLISDFYPGAVTVAWKADSSPVKAGVETTTPSKQSNNKYAASSYLSLTPEQWKSHRSYSCQVTHEGSTVEKTVAPTECS
light 2: DIQMTQSPSTLSASVGDRVTITCRASEGIYHWLAWYQQKPGKAPKLLIYKASSLASGVPSRFSGSGSGTEFTLTISSLQPDDFATYYCQQYSNYPPTFGGGTKLEIKRTVAAPSVFIFPPCDEQLKSGTASVVCLLNNFYPREAKVQWKVDNALQSGNSQESVTEQDSKDSTYSLSSTLTLSKADYEKHKVYACEVTHQGLSSPVTKSFNRGEV
notes: also called monovalent bispecific EGFR/cMET DuetMAb RAA22/B09; RAA22/B09-Maia
Consider B1, for which the “internalization levels (peak cytoplasmic intensity), fold higher in HCC827 cells than H1975” value in assay [1] is given as 21.7 fold. Besides, in assay [1] (HCC827 cells), the “binding at T=0” value is given as 3.1×10^7 MFI and the internalization profile entry is on record as “markedly increased internalization in HCC827 cells”. In assay [1] (T=0), the “binding to HCC827 cells, fold higher than H1975” value worked out at 8.9 fold. This molecule had a fold binding, HCC827 cells against H1975 cells in assay [2] of 8.9 fold. In addition, the MFI at T=0 in assay [3] was determined as 3.5e+06 MFI. Moreover, in assay [4], the binding result was “no binding (tested: 10 ug/ml)”. For the same molecule, the MFI at T=0 in assay [5] worked out at 3.1e+07 MFI.
